According to patent US20140322196A1:

Experiments:
Assay in all cases: cell-based or functional assay
[1] = target: Hemagglutinin (HA) of Influenza A virus A/Wisconsin/67/2005 H3N2 (inactivated subunits, vaccine) (Influenza A virus A/Wisconsin/67/2005 H3N2)
[2] = target: Hemagglutinin (HA) of Influenza A virus A/Solomon 3/2006 H1N1 (inactivated subunits, vaccine) (Influenza A virus A/Solomon 3/2006 H1N1)
[3] = target: Hemagglutinin (HA) of Influenza A virus A/Parma/24/09 (Brisbane-like) (oseltamivir-resistant) H1N1 (Influenza A virus A/Parma/24/09 H1N1)

Substance	HI titre [1] [fM]	HI titre [2] [fM]	HI titre [3] [pM]
… (SEQ ID NO: 1), bLf C-lobe peptide 418-429	23.2	46.5	1.4
… (SEQ ID NO: 2), bLf C-lobe peptide 506-522	11.6	46.5	1.4
Lactoferrin from bovine milk (bLf) (from UniProt P24627 20-708)	300	5000	6000
